In publication PMC12344693, “Human Milk Oligosaccharides Multivalently Presented on Defined Synthetic Neo-Glycoproteins Are Nanomolar Ligands of Tandem-Repeat Galectins” (Biomacromolecules, 2025):

Columns and labels:
[1] = target: His-tagged galectin-1 (C2S) (human); experiment: ELISA; competitive ELISA: ASF (0.1 µM in PBS) immobilised, serial dilutions of the neo-glycoprotein in EPBS incubated with […] Gal-1 or Gal-3 for 2 h; galectin left on ASF detected with anti-His-tag-HRP
[2] = target: full-length recombinant human galectin-8, N-terminal His-tagged (human) (UniProt O00214); experiment: ELISA; competitive: ASF (0.1 μM in PBS) immobilised on microtiter plates; serial dilutions of inhibitor in EPBS (PBS with 2 mM EDTA) incubated 2 h with a constant galectin concentration ([…] Gal-1, Gal-3, Gal-4; 0.5 μM Gal-8, Gal-9); residual galectin on ASF detected with anti-His-tag-HRP
Sequence of full-length recombinant human galectin-8, N-terminal His-tagged (human) (O00214 whole entry): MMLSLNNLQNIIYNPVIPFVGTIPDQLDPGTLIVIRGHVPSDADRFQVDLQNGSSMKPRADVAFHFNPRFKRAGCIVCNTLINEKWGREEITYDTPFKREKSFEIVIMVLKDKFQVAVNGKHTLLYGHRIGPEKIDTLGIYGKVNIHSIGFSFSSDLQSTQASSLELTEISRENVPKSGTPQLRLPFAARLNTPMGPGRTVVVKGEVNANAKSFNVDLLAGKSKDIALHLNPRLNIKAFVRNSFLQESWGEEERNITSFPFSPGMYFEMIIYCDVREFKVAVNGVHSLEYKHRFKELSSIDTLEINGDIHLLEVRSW

Asialofetuin = Asialofetuin (UniProt P12763); experiment: ELISA; direct ELISA: ASF immobilised on microtiter plates, serial dilution of the galectin in EPBS (PBS with 2 mM EDTA, 50 µL/well); otherwise as the competitive ELISA (anti-His-tag-HRP detection)
Sequence of Asialofetuin (P12763 19-359): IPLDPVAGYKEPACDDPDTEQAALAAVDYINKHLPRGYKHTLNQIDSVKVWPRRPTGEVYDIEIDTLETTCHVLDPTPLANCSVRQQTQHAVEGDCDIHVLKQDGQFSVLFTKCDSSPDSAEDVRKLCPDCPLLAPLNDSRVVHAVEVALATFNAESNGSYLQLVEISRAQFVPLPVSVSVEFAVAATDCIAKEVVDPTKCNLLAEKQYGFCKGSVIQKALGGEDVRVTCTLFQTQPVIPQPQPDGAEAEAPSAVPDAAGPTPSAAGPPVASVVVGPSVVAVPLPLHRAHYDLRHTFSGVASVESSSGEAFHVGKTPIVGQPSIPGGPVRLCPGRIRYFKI

Sequence of His-tagged galectin-1 (C2S) (human) (P09382 other isoform, or with tags, fused parts or gaps): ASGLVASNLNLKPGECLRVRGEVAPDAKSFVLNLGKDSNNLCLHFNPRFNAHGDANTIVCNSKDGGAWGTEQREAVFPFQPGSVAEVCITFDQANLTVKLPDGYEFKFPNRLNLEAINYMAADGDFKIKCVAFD

Row | IC50 [1] | IC50 [2] | other results | Substance
1 | > 20 µM |  |  | Neo-glycoprotein NGP4 (LN1-LN2-HSA) (from UniProt P02768 25-609)
2 |  | 0.6 µM |  | neo-glycoprotein NGP4 (LN1-LN2-HSA) (from UniProt P02768 25-609)
3 |  | 0.2 µM |  | neo-glycoprotein NGP5 (LN2-Lac-HSA) (from UniProt P02768 25-609)
4 |  |  | Kd (Asialofetuin): 0.18 µM | Gal-9-AVI-link (natural protein)
5 |  | > 20 µM |  | neo-glycoprotein NGP2 (LN2-HSA) (from UniProt P02768 25-609)
6 |  | 0.4 µM |  | neo-glycoprotein NGP7 (LDN-Lac-HSA) (from UniProt P02768 25-609)
7 | > 20 µM |  |  | Neo-glycoprotein NGP1 (Lac-HSA) (from UniProt P02768 25-609)
8 |  | > 20 µM |  | neo-glycoprotein NGP1 (Lac-HSA) (from UniProt P02768 25-609)
9 | > 20 µM |  |  | Neo-glycoprotein NGP8 (LDN-LN2-HSA) (from UniProt P02768 25-609)
10 |  |  | Kd (Asialofetuin): 0.32 µM | Gal-8-AVI-link (natural protein)
